Source: patent US20250288643A1

Target: T1, mouse CD47 (mouse) (UniProt Q61735)
T1 sequence (looked up): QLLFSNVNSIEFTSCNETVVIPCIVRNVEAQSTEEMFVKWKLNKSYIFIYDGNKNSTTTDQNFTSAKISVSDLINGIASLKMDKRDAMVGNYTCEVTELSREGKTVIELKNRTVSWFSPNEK
Experiment: ELISA, coated mouse CD47 ECD Fc, supernatant, anti-c-Myc HRP

Binder	mCD47 binding (OD)
4RP13-4-5C (designed binder) hSIRPα IgV domain mutant: EEELQVIQPDKSVSVAAGESAILNCTVTSLIPVGPIQWFRGAGPARELIYNQKHQTFPRVTTVSEQTKRENRDFSISISNITPADAGTYYCVKFRKGSPDTEFKSGAGTELSVRAKPS	0.116 OD
2R-1-7B (designed binder) hSIRPα IgV domain mutant: EEELQVIQPDKSVSVAAGESAILHCIVTSLIPVGPIQWFRGAGPARELIYNQKILTFPRVTTVSESTKRENYDFSISISNITPADAGTYYCVKFRKGSPDTEFKSGAGTELSVRAKPS	0.087 OD
4RP13-3-4D (designed binder) hSIRPα IgV domain mutant: EEELQVIQPDKSVSVAAGESAILHCTVTSLLPVGPIQWFRGAGPARELIYNQKSKVFPRVTTVSESTKRRNMDFSISISNITPADAGTYYCVKFRKGSPDTEFKSGAGTELSVRAKPS	0.173 OD
4RP13-5-6G (designed binder) hSIRPα IgV domain mutant: EEELQVIQPDKSVSVAAGESAILRCTVTSLTPVGPIQWFRGAGPARELIYNQKAKQFPRVTTVSESTKRENMIFSISISNITPADAGTYYCVKFRKGSPDTEFKSGAGTELSVRAKPS	0.149 OD
4RP13-3-10B (designed binder) hSIRPα IgV domain mutant: EEELQVIQPDKSVSVAAGESAILHCTVTSLYPVGPIQWFRGAGPARELIYNQKGRRFPRVTTVSESTKRANMDFSISISNITPADAGTYYCVKFRKGSPDTEFKSGAGTELSVRAKPS	0.17 OD
2RP-1-3E (designed binder) hSIRPα IgV domain mutant: EEELQVIQPDKSVSVAAGESAILTCTVTSLWPVGPIQWFRGAGPARELIYNQKGQNFPRVTTVSESTKRFNMDFSISISNITPADAGTYYCVKFRKGSPDTEFKSGAGTELSVRAKPS	0.113 OD
4RP13-3-7B (designed binder) hSIRPα IgV domain mutant: EEELQVIQPDKSVSVAAGESAILTCTVTSLYPVGPIQWFRGAGPARELIYNQKRQTFPRVTTVSESTKRFNMDFSISISNITPADAGTYYCVKFRKGSPDTEFKSGAGTELSVRAKPS	0.152 OD
2R-1-10B (designed binder) hSIRPα IgV domain mutant: EEELQVIQPDKSVSVAAGESAILHCTVTSLIPVGPIQWFRGAGPARELIYNQKNLIFPRVTTVSESGKRENMDFSISISNITPADAGTYYCVKFRKGSPDTEFKSGAGTELSVRAKPS	0.086 OD
2R-1-4B (designed binder) hSIRPα IgV domain mutant: EEELQVIQPDKSVSVAAGESAILHCTVTSLAPVGPIQWFRGAGPARELIYNQKLDSFPRVTTVSESTKRESMDFSISISNITPADAGTYYCVKFRKGSPDTEFKSGAGTELSVRAKPS	0.082 OD
